Assay [1] deals with FGF8b. Briefly: SPR. A general note: Surface plasmon resonance follows binding to a sensor surface in real time, without labels.
Assay [2] concerns the target FGF1 (UniProt P05230). Put plainly: SPR.

For orientation: pKd means the negative decadic logarithm of the Kd, by convention in mol/L. The low end stands for a high Kd, the high end for a low Kd.

pKd: −log10 of the molar value.

Sequence of FGF1 (P05230 whole entry): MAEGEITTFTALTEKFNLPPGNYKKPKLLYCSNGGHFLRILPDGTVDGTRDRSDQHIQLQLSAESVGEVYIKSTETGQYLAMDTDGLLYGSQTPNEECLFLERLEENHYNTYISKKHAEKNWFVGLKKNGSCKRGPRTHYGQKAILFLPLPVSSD

Consider “D1-AB-D2-D3 (FGFR3c), full-length FGFR3c ectodomain (from UniProt P22607 23-375) (domain or fragment)”, for which the pKd in assay [1] was 6.05.

Consider “D1-D2-D3^ΔAB/linker (FGFR3c), naturally occurring isoform of FGFR3c lacking the AB/linker (domain or fragment)”, for which the results for the pKd in assay [1] and in assay [2] were 6.44 and 6.51, respectively.

These data come from PMC3378326.
